# T1: hCD27-muFc (human; mouse, UniProt P26842 20-192)
# T1 construct: range 1-192; Secreted from HEK293, Protein A purified; not shown: mouse IgG1-Fc (muFc), residues 98 to 324 of UniProt P01868
# T1 sequence (looked up): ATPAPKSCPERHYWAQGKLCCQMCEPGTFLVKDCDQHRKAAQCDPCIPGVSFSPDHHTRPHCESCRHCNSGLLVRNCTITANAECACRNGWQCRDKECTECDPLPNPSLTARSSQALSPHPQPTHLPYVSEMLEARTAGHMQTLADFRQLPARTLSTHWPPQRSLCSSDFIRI
# T2: hCD27-EGFP on HEK293 cells (human, UniProt P26842 20-260)
# T2 construct: EGFP fusion expressed on transfected HEK293 cells; also called CD27-EGFP cells; cell surface CD27
# T2 sequence (looked up): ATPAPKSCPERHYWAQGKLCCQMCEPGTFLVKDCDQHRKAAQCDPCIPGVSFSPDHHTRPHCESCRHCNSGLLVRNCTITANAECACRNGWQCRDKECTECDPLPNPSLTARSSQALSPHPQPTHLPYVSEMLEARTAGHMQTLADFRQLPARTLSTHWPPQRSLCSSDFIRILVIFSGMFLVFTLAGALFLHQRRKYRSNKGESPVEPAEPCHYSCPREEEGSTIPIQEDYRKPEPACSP
# Tests used:
# hCD27-muFc [1] = target: T1, hCD27-muFc; assay: BLI (Octet K2), antibody on Protein A biosensor, hCD27-muFc in solution
# Experimental: Using the BLI method, each humanized antibody was immobilized on a Protein A biosensor at a concentration of 10 μg/ml, while hCD27-muFc was subjected to 2-fold serial dilution, starting from 100 nM, to obtain 5 gradient dilutions for each antibody. The reaction plate was placed on the Octet K2 instrument. The parameters were set to Baseline 70 s, Association 80 s, Dissociation 300 s, Baseline 260 s, Loading 40 s, and Custom 5 s.
# hCD27-muFc [2] = target: T1, hCD27-muFc; assay: ELISA, plate coated with hCD27-muFc, Test 1
# Experimental: (§1) The ELISA plate was coated with 2 μg/ml hCD27-muFc, 100 μl/well and incubated at 4° C. overnight. Then it was washed once with 10 mM, pH 7.4 PBS/Tween (0.05%), blocked with PBST containing 5% skimmed milk powder and incubated at 37° C. for 2 h. After washing the plate for 4 times, the humanized antibodies were added and incubated at 37° C. for 40 min, then it was washed for 4 times. Anti-human IgG-HRP-conjugated secondary antibody (Sigma, Cat #A0170-1M) was added and incubated at 37° C. for 40 min. After washing, the plate was developed with TMB substrate and spectrophotometric analysis was performed at OD₄₅₀. In FIGS. 5A-5B, each curve represents the binding result obtained for one of the humanized antibodies. From the results, it can be seen that all these humanized antibodies could bind to human CD27.
# hCD27-muFc [3] = target: T1, hCD27-muFc; assay: ELISA, plate coated with hCD27-muFc, Test 2
# Experimental: as §1
# [4] = target: T2, hCD27-EGFP on HEK293 cells; assay: FACS titration on CD27-EGFP HEK293 cells, 8 three-fold dilutions from 20 µg/ml, anti-human Ig-APC secondary, MFI; table drawn under the plot, unit from the x axis; no upper plateau reached
# Experimental: Based on the above results of ELISA, 7 humanized antibodies were selected to examine their affinities to cell surface CD27. Briefly, 5×10⁵ CD27-EGFP cells prepared in Example 1 were washed twice in PBS, each of the humanized antibodies (d16647, d12996, d9419, 14822, 9424, d14822, d12674) was added. The antibodies were subjected to 3-fold serial dilution, starting from 20 μg/ml, to obtain 8 gradient dilutions for each antibody. The antibodies and the cells were incubated at 4° C. for 30 min. Then, it was washed twice with PBS, anti-human Ig-APC (Jackson ImmunoResearch Laboratories, Cat #109-135-098) was added, and incubated at 4° C. for 30 min, washed twice with PBS and resuspended in 300 μl PBS. Flow cytometry was then performed, and the results are shown in FIG. 6. m2F11 was used as a control.
Binder,Kd (hCD27-muFc [1]) [nM],koff (hCD27-muFc [1]) [s⁻¹],kon (hCD27-muFc [1]) [M⁻¹ s⁻¹],EC50 (hCD27-muFc [2]) [µg/mL],EC50 (hCD27-muFc [3]) [µg/mL],LogEC50 [4]
"12996 (antibody, human IgG1, V domains shown, not shown: a dimerising Fc or GST, Humanized m2F11, human IgG1 / kappa) VH: EVHLQESGGGLVKPGGSLRLSCAASGFTFSSYAMSWVRQAPEKGLEWVAIIGDGDTYTYYPDSVKGRFTISRDNSKNRLYLQMNSLKSEDTAMYYCVRTRGGPFDYWGQGTTLTVSS VL: EILLTQSPAFMSATPGEKVTITCSASSSVGSMHWYQQKSGQSPRRLIYDTSKLASGVPDRFSGSGSGTDYTLTISSLEAEDAATYYCQQWSSIPPTFGAGTTLELK",4.98,0.000368,73900,0.0506,,
"9419 (antibody, human IgG1, V domains shown, not shown: a dimerising Fc or GST, Humanized m2F11, human IgG1 / kappa) VH: EVHLQESGGALVKPGGSLRLSCAASGFTFSSYAMSWVRQAPEKGLEWVAIIGDGDTYTYYPDSVKGRFTISRDNAKNTLYLQMSNLKSEDTAMYYCVRTRGGPFDYWGQGTTLTVSS VL: EILLTQSPAFMSATPGEKVTITCSASSSVGSMHWYQQKSGQSPRRLIYDTSKLASGVPDRFSGSGSGTDYTLTISSLEAEDAATYYCQQWSSIPPTFGAGTTLELK",2.73,0.000287,105000,0.0583,,
"9424 (antibody, human IgG1, V domains shown, not shown: a dimerising Fc or GST, Humanized m2F11, human IgG1 / kappa) VH: EVHLQESGGGLVKPGGSLRLSCAASGFTFSSYAMSWVRQTPEKGLEWVAIIGDGDTYTYYPDSVKGRFTISRDNAKNTLYLQMNSLKSEDTAMYYCVRTRGGPFDYWGQGTTLTVSS VL: EILLTQSPAFMSATPGEKVTITCSASSSVGSMHWYQQKSGQSPRRLIYDTSKLASGVPDRFSGSGSGTDYTLTISSLEAEDAATYYCQQWSSIPPTFGAGTTLELK",7.02,0.000396,56500,,0.0342,0.546 Log10(ug/ml)
"12674 (antibody, human IgG1, V domains shown, not shown: a dimerising Fc or GST, Humanized m2F11, human IgG1 / kappa) VH: EVHLQESGGGLVKPGGSLRLSCAASGFTFSSYAMSWVRQAPGKGLEWVAIIGDGDTYTYYPDSVKGRFTISRDNSKNRLYLQMNSLKSEDTAMYYCVRTRGGPFDYWGQGTTLTVSS VL: EILLTQSPAFMSATPGEKVTITCSASSSVGSMHWYQQKSGQSPRRLIYDTSKLASGVPDRFSGSGSGTDYTLTISSLEAEDAATYYCQQWSSIPPTFGAGTTLELK",3.66,0.000291,79500,0.0585,,
"14822 (antibody, human IgG1, V domains shown, not shown: a dimerising Fc or GST, Humanized m2F11, human IgG1 / kappa) VH: EVHLQESGGGLVKPGGSLRLSCAASGFTFSSYAMSWVRQMPGKGLEWVAIIGDGDTYTYYPDSVKGRFTISRDNSKNTLYLQMNSLKSEDTAMYYCVRTRGGPFDYWGQGTTLTVSS VL: EILLTQSPAFMSATPGEKVTITCSASSSVGSMHWYQQKSGQSPRRLIYDTSKLASGVPDRFSGSGSGTDYTLTISSLEAEDAATYYCQQWSSIPPTFGAGTTLELK",5.15,0.000499,97000,0.0427,,0.62 Log10(ug/ml)
"16647 (antibody, human IgG1, V domains shown, not shown: a dimerising Fc or GST, Humanized m2F11, human IgG1 / kappa) VH: QVELRESGGGLVKPGGSLRLSCAASGFTFSSYAMSWVRQMPGKGLEWVAIIGDGDTYTYYPDSVKGRFTISRDNSKNRLYLQMNSLKSEDTAMYYCVRTRGGPFDYWGQGTTLTVSS VL: EILLTQSPAFMSATPGEKVTITCSASSSVGSMHWYQQKSGQSPRRLIYDTSKLASGVPDRFSGSGSGTDYTLTISSLEAEDAATYYCQQWSSIPPTFGAGTTLELK",4.86,0.000348,71500,,0.0445,
"d9419 (antibody, human IgG1, V domains shown, not shown: a dimerising Fc or GST, Humanized m2F11, human IgG1 / kappa) VH: EVHLQESGGALVKPGGSLRLSCAASGFTFSSYAMSWVRQKPEKNLEWVAIIGDGDTYTYYPDSVKGRFTISRDNAKNTLYLQMSDLKSEDTAMYYCVRTRGGPFDYWGQGTTLTVSS VL: EILLTQSPAFMSATPGEKVTITCSASSSVGSMHWYQQKSGQSPRRLIYDTSKLASGVPDRFSGSGSGTDYTLTISSLEAEDAATYYCQQWSSIPPTFGAGTTLELK",1.7,0.000205,120000,0.033,,0.564 Log10(ug/ml)
"d12674 (antibody, human IgG1, V domains shown, not shown: a dimerising Fc or GST, Humanized m2F11, human IgG1 / kappa) VH: EVHLQESGGGLVKPGGSLRLSCAASGFTFSSYAMSWVRQAPGKGLEWVAIIGDGDTYTYYPDSVKGRFTISRDNSKNRLYLQMNDLKSEDTAMYYCVRTRGGPFDYWGQGTTLTVSS VL: EILLTQSPAFMSATPGEKVTITCSASSSVGSMHWYQQKSGQSPRRLIYDTSKLASGVPDRFSGSGSGTDYTLTISSLEAEDAATYYCQQWSSIPPTFGAGTTLELK",5,0.000447,89400,,0.0424,0.635 Log10(ug/ml)
"d12996 (antibody, human IgG1, V domains shown, not shown: a dimerising Fc or GST, Humanized m2F11, human IgG1 / kappa) VH: EVHLQESGGGLVKPGGSLRLSCAASGFTFSSYAMSWVRQEPEKNLEWVAIIGDGDTYTYYPDSVKGRFTISRDNSKNRLYLQMNDLKSEDTAMYYCVRTRGGPFDYWGQGTTLTVSS VL: EILLTQSPAFMSATPGEKVTITCSASSSVGSMHWYQQKSGQSPRRLIYDTSKLASGVPDRFSGSGSGTDYTLTISSLEAEDAATYYCQQWSSIPPTFGAGTTLELK",3.39,0.000326,96200,0.03,,0.562 Log10(ug/ml)
"d16647 (antibody, human IgG1, V domains shown, not shown: a dimerising Fc or GST, Humanized m2F11, human IgG1 / kappa) VH: QVELRESGGGLVKPGGSLRLSCAASGFTFSSYAMSWVRQTPDKGLEWVAIIGDGDTYTYYPDSVKGRFTISRDNSKNRLYLQMNDLKSEDTAMYYCVRTRGGPFDYWGQGTTLTVSS VL: EILLTQSPAFMSATPGEKVTITCSASSSVGSMHWYQQKSGQSPRRLIYDTSKLASGVPDRFSGSGSGTDYTLTISSLEAEDAATYYCQQWSSIPPTFGAGTTLELK",3.05,0.000281,92100,0.0376,,0.601 Log10(ug/ml)
"d14822 (antibody, human IgG1, V domains shown, not shown: a dimerising Fc or GST, Humanized m2F11, human IgG1 / kappa) VH: EVHLQESGGGLVKPGGSLRLSCAASGFTFSSYAMSWVRQTPDKGLEWVAIIGDGDTYTYYPDSVKGRFTISRDNSKNTLYLQMNDLKSEDTAMYYCVRTRGGPFDYWGQGTTLTVSS VL: EILLTQSPAFMSATPGEKVTITCSASSSVGSMHWYQQKSGQSPRRLIYDTSKLASGVPDRFSGSGSGTDYTLTISSLEAEDAATYYCQQWSSIPPTFGAGTTLELK",4.27,0.000334,78200,,0.0339,0.373 Log10(ug/ml)
